One may read the EC50 as the concentration that produces a half-maximal response. Low readings indicate greater potency, high ones weaker potency.

In patent US20160024176A1 one finds EC50 data, which are given here for one substance.

The experiment addresses V158 high affinity variant of CD16a (FcγRIIIa) (UniProt P08637). Description: HTRF competition with IgG-d2 on HEK293 cells expressing terbium-labelled FcγRIIIa V158. A general note: Time-resolved FRET reads energy transfer from a long-lived donor to a nearby acceptor.

In turn, human IgG1 monoclonal antibody came in with an EC50 of 220 nM.
